Test [1] deals with T1, BA46 antigen of the human milk fat globule (HMFG) (human, UniProt Q08431 24-387, limits assumed).
T1 construct: also called 46 kDa HMFG antigen; human milk fat globule preparation
T1 sequence (looked up): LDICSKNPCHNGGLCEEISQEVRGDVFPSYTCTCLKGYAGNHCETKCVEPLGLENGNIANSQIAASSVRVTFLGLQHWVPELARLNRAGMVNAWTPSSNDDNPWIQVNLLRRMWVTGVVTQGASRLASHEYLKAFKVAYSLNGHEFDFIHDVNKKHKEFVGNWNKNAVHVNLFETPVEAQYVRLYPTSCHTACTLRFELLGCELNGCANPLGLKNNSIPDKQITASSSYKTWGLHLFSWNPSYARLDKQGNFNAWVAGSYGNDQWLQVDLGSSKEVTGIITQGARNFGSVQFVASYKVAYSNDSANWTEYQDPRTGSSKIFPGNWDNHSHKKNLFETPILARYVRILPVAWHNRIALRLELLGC
Put plainly: competition RIA on plate-bound HMFG; reciprocal of the concentration of unlabeled antibody giving 50% binding. As to the method:
The protocol for the assay was as follows.
Microtiter plates (Dynatech, Chantilly, Va.) were prepared with HMFG according to standard techniques (as described by Ceriani et al., in "Monoclonal Antibodies and Functional Cell Lines" (T. J. McKern et al. eds.), pp. 398-402, New York, Plenum Press, 1984). To each well was added 25 µl ^125I-Mc3 in RIA buffer (10% bovine calf serum, 0.3% TRITON™ X-100, 0.05% sodium azide pH 7.4, in phosphate buffered saline), and competed with 25 µl of either unlabeled murine antibody or murine-human chimeric antibody in RIA buffer at final concentrations in the nanomolar range.
Iodinations were performed with ^125I (17 Ci/mg, Nordion International Inc., Kanata, Ontario, Canada). 50 µg monoclonal antibody Mc3 was labeled (at a specific activity of ~10 mCi/mg) using the chloramine T method as described by Ceriani, R. L., and Blank, E. W. (1988) *Cancer Res.* 48: 4664-4672.

Test [2] deals with T1, BA46 antigen of the human milk fat …. Description: affinity as summarised in the description; same assay as Example 10. As to the method: (§1) Binding studies were conducted as outlined earlier. Briefly, microliter plates were prepared using successive layers of methylated BSA (bovine serum albumin), glutaraldehyde, and a preparation of delipidated HMFG (Ceriani R. L. et al. (1977) PNAS (USA) 74:582-586). Each well was coated with 100 ng of HMFG. Competition experiments were conducted by adding to each well a standard amount of ^125I-MuMc3 and an appropriate dilution of unlabeled MuMc3 or HuMc3 in RIA buffer (10% bovine calf serum, 0.3 TRITON X-100™), 0.05% sodium azide pH 7.4, in PBS). For the determination of affinity constants, each antibody was tested in competition against itself.

Test [3] has the same target. Put plainly: competition RIA on plate-bound delipidated HMFG, each antibody tested against itself; reciprocal of the concentration giving 50% maximal binding. As to the method: as §1

B1: murine-human chimeric Mc3 antibody (ChMc3) (antibody, V domains shown)
VH: EVQLQQSGPELVKPGASMKISCEASGYSFTGYTMHWVKQSHGMNLEWIGLINPYNGGTVYNQKFQDKATLTVDKSSGTAYMELLSLTSEDSAVYFCARRWRYTMDYWGQGTSVTVSS
VL: DIVMTQSHKFMSTSEGDWVSITCKASQDVSIGVAWYQQKPGQSPKLLIYSASSRYTGVPDRFSGSGSGTDFTFTISSVQAEDLAVYYCQQHYTSPFTFGSGTNLEIK
notes: also called Chimeric antibody
In turn, B1 yielded a Ka in test [1] of 5e+08 M⁻¹.

B2: murine monoclonal antibody Mc3 (antibody, V domains shown)
VH: B1 VH
VL: B1 VL
notes: Whole murine monoclonal antibody from the Mc3 hybridoma, kappa light chain; As the tracer it was labelled with 125I by the chloramine T method; also called MuMc3; Mc3 murine antibody
Regarding B2, the Ka in test [1] was 3e+08 M⁻¹.

B3: humanized Mc3 antibody (HuMc3) (antibody, human IgG1, V domains shown)
VH: EVQLVQSGAEVKKPGASVKVSCKASGYSFTGYTMHWVKQSPGMNLEWIGLINPYNGGTVYNQKFQDKATLTVDKSTSTAYMELSSLRSEDTAVYFCARRWRYTMDYWGQGTLVTVSS
VL: DIVMTQSPDSLAVSLGERATITCKASQDVSIGVAWYQQKPGQSPKLLIYSASSRYTGVPDRFSGSGSGTDFTLTISSLQAEDVAVYYCQQHYTSPFTFGSGTKVEIK
notes: Humanized variable regions cloned into pAH4604 (human gamma 1 constant region) and pAG4622 (human kappa constant region), so a human IgG1 kappa; also called HuMc3v2
In the case of B3, the figures for the Ka in test [2] and in test [3] were 6.2e+08 M⁻¹ and 6e+08 M⁻¹, respectively.

The values above are taken from patent US7390635 (CANCER RESEARCH INSTITUTE OF CONTRA COSTA, dated 2008).
